The target in assay [1] is human recombinant adrenomedullin receptor (CRLR+RAMP3) (human).
Assay [2] shares this target. The source holds these as a separate data set.

Regarding human ADM 22-52 (peptide), the IC50 (read off the curve); cAMP (HTRF) induced by 5.63 nM hADM, % inhibition in assay [1] turned out to be 0.3 µM. For the same substance, in assay [2], the IC50 (read off the curve); cAMP (HTRF) induced by 0.67 nM mADM, % inhibition came to 3 µM.

(Values after US20230104578A1, “ANTI-ADRENOMEDULLIN (ADM) ANTIBODY OR ANTI-ADM ANTIBODY FRAGMENT OR ANTI-ADM NON-IG SCAFFOLD FOR USE IN THERAPY OR PREVENTION OF SHOCK” (ADRENOMED AG, priority 2020, published 2023).)
